# Reference: patent publication US20250277029A1 (Amgen, published 2025)
# Assays:
# [1] = molecular target: T1, human cannabinoid receptor 1 (huCB1), full length, expressed on cells (human, UniProt P21554 1-472); test: cell-based or functional assay
# huCB1 nanodisc (CB1-ND) = molecular target: T2, huCB1 nanodisc (CB1-ND) (human, UniProt P21554 99-414); test: Octet BLI; antibody captured by anti-human Fc, CB1-nanodisc in solution, 1:1 model
# T2 construct: The His-tagged CB1 is embedded in a POPC lipid nanodisc with MSP1D1 scaffold protein (molar ratio 480:8:1); also called huCB1-ND; #CB1-008
# [2] = molecular target: T1, human cannabinoid receptor 1 (huCB1), …; test: cell-based or functional assay; remark: listed apart in the source
# [3] = molecular target: T1, human cannabinoid receptor 1 (huCB1), …; test: cell-based or functional assay; remark: listed apart in the source
# [4] = molecular target: T1, human cannabinoid receptor 1 (huCB1), …; test: cell-based or functional assay; remark: listed apart in the source
# [5] = molecular target: T1, human cannabinoid receptor 1 (huCB1), …; test: KinExA on-cell ranking, HEK 293T cells expressing full length CB1; %IFF of LIBC523661 divided by %IFF of antibody
# [6] = molecular target: T1, human cannabinoid receptor 1 (huCB1), …; test: cell-based or functional assay; remark: listed apart in the source
# [7] = molecular target: T1, human cannabinoid receptor 1 (huCB1), …; test: cell-based or functional assay; remark: listed apart in the source
# mouse CB1 [8] = molecular target: T3, mouse CB1 (mouse, UniProt P47746 1-473); test: FACS on transfected HEK293T cells
# T3 construct: also called muCB1; murine CB1
# [9] = molecular target: T4, human cannabinoid receptor type 2 (CB2) (human, UniProt P34972 1-360); test: FACS on transfected HEK293T cells
# T4 construct: also called huCB2; full length hu CB2
# [10] = molecular target: T1, human cannabinoid receptor 1 (huCB1), …; test: cell-based or functional assay; remark: listed apart in the source
# [11] = molecular target: T1, human cannabinoid receptor 1 (huCB1), …; test: KinExA on-cell ranking, HEK 293T cells expressing full length CB1; reference antibody of the ratio
# [12] = molecular target: T5, GFP-fused huCB1-SMALP (human CB1 in styrene maleic acid lipoparticles) (human, UniProt P21554 1-472); test: flow cytometry, yeast-displayed IgG, GFP MFI
# T5 construct: Prepared as in Luna V. et al. 2018; also called huCB1-GFP-SMALP; wtCB1-SMALP; not shown: GFP fusion
# [13] = molecular target: T6, His-tagged huCB1-ND (human CB1 in nanodisc) (human); test: flow cytometry, yeast-displayed IgG, binding/display ratio
# T6 construct: CB1 construct of Cell 167(3) (2016) 750-762 expressed in Sf9 cells; POPC:MSP1D1:CB1 480:8:1; also called CB1-nanodisc; huCB1-Nanodisc; not shown: histidine purification tag
# [14] = molecular target: T7, full length human CB1 expressed on cells (human, UniProt P21554 1-472); test: KinExA, on HEK 293T cells expressing full length CB1
# T7 construct: also called huCB1; full length hu CB1
# [15] = molecular target: T6, His-tagged huCB1-ND (human CB1 in …); test: flow cytometry, yeast-displayed IgG, huCB1-ND over empty-ND
# mouse CB1 [16] = molecular target: T3, mouse CB1; test: binding to muCB1, fold over mock (method not described)
# [17] = molecular target: T4, human cannabinoid receptor type 2 (CB2); test: binding to huCB2, fold over mock (method not described)
# mouse CB1 [18] = molecular target: T3, mouse CB1; test: fold over mock (Table 14)
# [19] = molecular target: T4, human cannabinoid receptor type 2 (CB2); test: fold over mock (Table 14)
# T3 sequence (P47746 whole entry): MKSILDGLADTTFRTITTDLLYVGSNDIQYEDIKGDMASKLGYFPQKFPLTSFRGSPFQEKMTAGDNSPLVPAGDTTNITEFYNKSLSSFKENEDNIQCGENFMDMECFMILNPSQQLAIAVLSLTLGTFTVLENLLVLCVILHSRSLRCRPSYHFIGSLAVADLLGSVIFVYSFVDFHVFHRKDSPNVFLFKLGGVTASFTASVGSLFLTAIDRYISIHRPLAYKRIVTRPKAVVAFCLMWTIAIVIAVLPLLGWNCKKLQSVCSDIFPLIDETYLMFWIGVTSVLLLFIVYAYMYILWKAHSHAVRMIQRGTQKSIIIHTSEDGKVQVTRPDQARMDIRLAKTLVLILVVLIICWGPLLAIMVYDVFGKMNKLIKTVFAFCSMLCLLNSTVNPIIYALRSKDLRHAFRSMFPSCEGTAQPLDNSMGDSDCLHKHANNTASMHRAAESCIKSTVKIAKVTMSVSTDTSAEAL
# T4 sequence (P34972 whole entry): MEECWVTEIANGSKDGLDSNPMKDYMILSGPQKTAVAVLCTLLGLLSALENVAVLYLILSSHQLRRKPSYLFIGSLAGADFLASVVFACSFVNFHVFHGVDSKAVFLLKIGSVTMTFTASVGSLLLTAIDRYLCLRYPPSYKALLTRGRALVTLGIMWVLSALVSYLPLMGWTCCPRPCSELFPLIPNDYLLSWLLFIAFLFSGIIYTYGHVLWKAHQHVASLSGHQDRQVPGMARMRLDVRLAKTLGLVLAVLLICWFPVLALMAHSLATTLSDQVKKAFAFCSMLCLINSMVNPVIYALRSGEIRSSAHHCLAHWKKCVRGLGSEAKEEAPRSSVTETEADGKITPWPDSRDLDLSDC
# T1 sequence (P21554 whole entry): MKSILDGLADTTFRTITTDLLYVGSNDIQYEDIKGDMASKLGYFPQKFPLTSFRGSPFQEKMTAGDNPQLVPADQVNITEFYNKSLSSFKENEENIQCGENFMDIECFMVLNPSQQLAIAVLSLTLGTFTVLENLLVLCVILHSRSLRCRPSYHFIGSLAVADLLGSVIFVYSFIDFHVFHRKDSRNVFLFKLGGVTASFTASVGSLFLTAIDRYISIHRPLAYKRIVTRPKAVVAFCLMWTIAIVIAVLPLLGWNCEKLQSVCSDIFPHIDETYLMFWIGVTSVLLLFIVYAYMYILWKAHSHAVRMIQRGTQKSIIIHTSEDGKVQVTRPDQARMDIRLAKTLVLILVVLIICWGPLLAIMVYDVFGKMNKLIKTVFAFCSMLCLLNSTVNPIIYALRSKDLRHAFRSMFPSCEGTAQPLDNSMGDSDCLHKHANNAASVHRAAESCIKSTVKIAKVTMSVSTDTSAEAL
# T2 sequence (P21554 99-414 limits assumed): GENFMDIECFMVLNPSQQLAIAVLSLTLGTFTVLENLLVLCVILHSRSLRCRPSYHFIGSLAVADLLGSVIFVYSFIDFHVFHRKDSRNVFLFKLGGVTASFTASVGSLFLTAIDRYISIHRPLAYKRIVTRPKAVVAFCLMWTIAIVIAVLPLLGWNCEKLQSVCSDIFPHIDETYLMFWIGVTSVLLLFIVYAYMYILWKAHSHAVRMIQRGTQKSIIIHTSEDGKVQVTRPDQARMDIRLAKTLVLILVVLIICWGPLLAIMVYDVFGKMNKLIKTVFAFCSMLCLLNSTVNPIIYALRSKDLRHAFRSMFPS
# T6 sequence (P21554 99-414): as the sequence (P21554 99-414 limits assumed) above
# T7 sequence (P21554 whole entry): as the sequence (P21554 whole entry) above
# T5 sequence (P21554 whole entry, the tested form may be a part): as the sequence (P21554 whole entry) above
binder,measurement,setting,value
"LIBC527814-1 (antibody, V domains shown, Expressed as IgG1 SEFL2 mAb) VH: QVQLQESGPGLVKPSQTLSLTCTVSGGSIRRGGDYWGWIRQHPGKGLEWIGHVYQTGSTKYNPSFKDRATISVNTYKNQFSLKLSSVTAADTAVYYCARNYDTLTGYSYYYYGMDVWGQGTTVTVSS VL: DIQMTQSPSTLSASVGDRVTITCRASQSISNYLNWYQQKPGKAPKLLIYAASSLHSGVPSRFSGSGSGTDFTLTISSLQPEDFASYYCQQYQSYPLTFGQGTKVEIKR","IC50, nM (CP agonist)",[1],2.1 nM
same,Kd,huCB1 nanodisc (CB1-ND),35 nM
same,koff,huCB1 nanodisc (CB1-ND),0.00198 s⁻¹
same,kon,huCB1 nanodisc (CB1-ND),56600 M⁻¹ s⁻¹
same,"Mean IC50 (nM, n = 3), cAMP antagonist assay",[2],2.07 nM
same,"IC50 (nM), antagonist assay",[3],3.8 nM
same,"Mean IC50 (nM), cAMP antagonist assay",[4],2.97 nM
same,"Mean IC50, -fold vs Rimo",[4],0.99 fold vs Rimonabant
same,"n = 1 IC50 (nM), cAMP antagonist assay",[4],4.72 nM
same,"n = 1 IC50, -fold vs Rimo",[4],1.12 fold vs Rimonabant
same,"n = 2 IC50 (nM), cAMP antagonist assay",[4],1.22 nM
same,"n = 2 IC50, -fold vs Rimo",[4],0.68 fold vs Rimonabant
same,"Relative binding (KinExA, on cell; vs LIBC523661 mAb)",[5],1.9 ratio
"LIBC528116-1 (antibody, V domains shown, Expressed as IgG1 SEFL2 mAb; also called 37940-4) VH: QVQLQESGPGLVKPSQTLSLTCTVSGGSIRRGGDYWAWIRQHPGKGLEWIGHVYYTGSTNYNPRFKDRATISVNTYKNQFSLKLSSVTAADTAVYYCARNYDTVTGYSYYYYGMDVWGQGTTVTVSS VL: DIQLTQSPSTLSASVGDRVTITCRASQSISNYLNWYQQKPGKAPKLLIYAASSLHSGVPSRFSGSGSGTDFTLTISSLQPEDFASYYCQQYQSYPLTFGQGTKVEIKR","IC50, nM (CP agonist)",[1],1.8 nM
same,Kd,huCB1 nanodisc (CB1-ND),29 nM
same,"Mean IC50 (nM, n = 3), cAMP antagonist assay",[2],1.77 nM
same,IC50,[6],2.7 nM
same,"Mean IC50 (nM), cAMP antagonist assay",[4],2.4 nM
same,"n = 1 IC50 (nM), cAMP antagonist assay",[4],3.93 nM
same,"n = 2 IC50 (nM), cAMP antagonist assay",[4],0.88 nM
same,"Antagonist assay IC50 (nM), 2-AG",[7],7.2 nM
same,"Antagonist assay IC50 (nM), Anandamide",[7],17 nM
same,"Antagonist assay IC50 (nM), CP 55,940",[7],1.8 nM
same,Inverse agonist assay IC50,[7],31.7 nM
"LIBC560340-1 (antibody, V domains shown) VH: QVQLQESGPGLVKPSQTLSLICIVSGGSIRRGGDYWNWIRQHPGKGLEWIGHIYYSGSKNYNPSLKSRVTISVDTSKNQFSLKLSSVTAADTAVYYCARGYDSSGYSYYYYGMDVWGQGTTVTVSS VL: DIVMTQSPLSLPVTPGEPASISCRSSQSLLYSNGHNFLDWYLQKPGQSPQLLIYLGSNRASGVPDRFSGSGSGTDFTLKISRVEAEDVGVYYCMQALQTPRTFGGGTKVEIKR",binding result,mouse CB1 [8],no binding
same,binding result,[9],no binding
"LIBC560657-1 (antibody, V domains shown) VH: QVQLRESGPGLVKPSQTLSLICIVSGGSIRRGGDYWNWIRQHPGKGLEWIGHIYYTGTKYYNPSLKSRVTISVDTSKNQFSLKLSSVTAADTAVYYCARGYDSSGYSYYYYGMDVWGQGTTVTVSS VL: DIVMTQSPLSLPVTPGEPASISCRSSQSLLYSNGHNYLDWYLQKPGQSPQLLIYLGSNRAPGVPDRFSGSGSGTDFTLKISRVEAEDVGVYFCMQALQTPRTFGGGTKVEIKR",binding result,mouse CB1 [8],no binding
same,binding result,[9],no binding
"10D10 (antibody, V domains shown, Parent antibody from XenoMouse; also called 10D10 antibody) VH: QVQLQESGPGLVKPSQTLSLTCTVSGGSIRRGGDYWSWIRQHPGKGLEWIGYIYYSGSTNYNPSLKSRATISVDTSKNQFSLKLSSVTAADTAVYYCARDYDILTGYSYYYYGMDVWGQGTTVTVSS VL: not shown","IC50, nM (CP agonist)",[1],121 nM
same,Kd,huCB1 nanodisc (CB1-ND),755 nM
same,"Mean IC50 (nM, n = 3), cAMP antagonist assay",[2],120 nM
same,"IC50 (nM), antagonist assay",[3],144 nM
same,"Mean IC50 (nM), cAMP antagonist assay",[4],80.8 nM
same,"n = 1 IC50 (nM), cAMP antagonist assay",[4],118 nM
same,"n = 2 IC50 (nM), cAMP antagonist assay",[4],43.4 nM
same,"IC50, nM (TR-FRET cAMP assay, CP55,940 and Forskolin)",[10],120 nM
same,"Antagonist assay IC50 (nM), 2-AG",[7],178 nM
same,"Antagonist assay IC50 (nM), Anandamide",[7],6040 nM
same,"Antagonist assay IC50 (nM), CP 55,940",[7],120 nM
same,Inverse agonist assay IC50,[7],295 nM
"LIBC523661-1 (antibody, V domains shown, Expressed as IgG1 SEFL2 mAb) VH: QVQLQESGPGLVKPSQTLSLTCTVSGGSIRRGGDYWSWIRQHPGKGLEWIGHIYYEGSTKYNPSFKGRATISVNTYKNQFSLKLSSVTAADTAVYYCARDYDPVTGHSYYYYGMDVWGQGTTVTVSS VL: DIVMTQSPLSLPVTPGEPASISCRSSQSLLTSSGYNYVDWYLQKPGQSPQLLIYQGSNRASGVPDRFSGSGSGTDFTLKISRVEAEDVGVYYCRQARAIPRTFGQGTKVEIKR","IC50, nM (CP agonist)",[1],3.9 nM
same,Kd,huCB1 nanodisc (CB1-ND),77 nM
same,koff,huCB1 nanodisc (CB1-ND),0.00275 s⁻¹
same,kon,huCB1 nanodisc (CB1-ND),35700 M⁻¹ s⁻¹
same,"Mean IC50 (nM, n = 3), cAMP antagonist assay",[2],3.88 nM
same,"Mean IC50 (nM), cAMP antagonist assay",[4],3.3 nM
same,"Mean IC50, -fold vs Rimo",[4],1.1 fold vs Rimonabant
same,"n = 1 IC50 (nM), cAMP antagonist assay",[4],5.24 nM
same,"n = 1 IC50, -fold vs Rimo",[4],1.24 fold vs Rimonabant
same,"n = 2 IC50 (nM), cAMP antagonist assay",[4],1.35 nM
same,"n = 2 IC50, -fold vs Rimo",[4],0.75 fold vs Rimonabant
same,"Relative binding (KinExA, on cell; vs LIBC523661 mAb)",[11],1 ratio
"LIBC523661-1 (antibody, IgG1, V domains shown) VH: QVQLQESGPGLVKPSQTLSLTCTVSGGSIRRGGDYWSWIRQHPGKGLEWIGHIYYEGSTKYNPSFKGRATISVNTYKNQFSLKLSSVTAADTAVYYCARDYDPVTGHSYYYYGMDVWGQGTTVTVSS VL: DIVMTQSPLSLPVTPGEPASISCRSSQSLLTSSGYNYVDWYLQKPGQSPQLLIYQGSNRASGVPDRFSGSGSGTDFTLKISRVEAEDVGVYYCRQARAIPRTFGQGTKVEIKR",100 nM huCB1-SMALP binding (normalized to 10D10),[12],8 fold
same,relative binding to 0.2 nM huCB1-ND (relative to 10D10N35Y),[13],4.03 fold
same,Kd,[14],0.064 nM
same,specific huCB1 binding (CB1 ND/Empty ND ratio),[15],9.32 ratio
same,Fold over mock,mouse CB1 [16],0.7 fold
same,Fold over mock,[17],0.8 fold
same,binding result,mouse CB1 [18],no binding
same,binding result,[19],no binding
